The record followed here is EP1876240B1.

The target of assay [1] is human GPVI extracellular region-human Fc fusion protein (hGPVI-hFc) (human). Description: ELISA on immobilized antigen; control. For orientation: In an ELISA, binding on a coated surface is turned into a signal by an enzyme label.
For assay [2], the target named is rat GPVI-human Fc (rGPVI-hFc) (rat; mouse). The experiment in a line: ELISA on immobilized antigen; control.

human GPVI extracellular region-human Fc fusion protein (hGPVI-hFc) (human), sequence (chain, as listed by the source limits assumed, form in doubt): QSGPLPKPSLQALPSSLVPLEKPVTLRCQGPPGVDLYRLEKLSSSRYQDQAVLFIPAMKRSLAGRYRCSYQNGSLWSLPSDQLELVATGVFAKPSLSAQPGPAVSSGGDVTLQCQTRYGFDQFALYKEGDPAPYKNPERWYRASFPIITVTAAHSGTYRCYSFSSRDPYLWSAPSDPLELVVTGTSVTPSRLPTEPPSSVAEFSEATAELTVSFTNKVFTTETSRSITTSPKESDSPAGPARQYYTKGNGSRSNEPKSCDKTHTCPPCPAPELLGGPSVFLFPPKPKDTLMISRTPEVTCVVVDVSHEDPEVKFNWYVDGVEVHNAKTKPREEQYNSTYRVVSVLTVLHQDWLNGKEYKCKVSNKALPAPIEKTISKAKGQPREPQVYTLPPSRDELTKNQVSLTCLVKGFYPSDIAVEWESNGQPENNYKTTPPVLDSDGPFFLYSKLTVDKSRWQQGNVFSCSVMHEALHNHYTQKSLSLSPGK

For Normal Mouse IgG (antibody), the figures for the absorbance (ELISA) in assay [1] and in assay [2] were 0.026 and 0.123, respectively.
